Read-outs that look alike come from different tables or passages of the source.
Assays:
[1] = Enzymatic hydrolysis of purified lipoproteins (NEFA); format: biochemical, human; settings: 15 h at 37° C., each sPLA2 at approximately 10×IC50
Experimental: CM/VLDL, LDL and HDL were purified from human plasma and used either fresh (F) or after minimal oxidization by air and light (Ox). After phospholipid content determination, plasma, LDL and HDL were adjusted to 1.6 mg PL/mL final concentration in PBS calcium. Because low amount was available, the CM/VLDL fraction was adjusted to 1.0 mg PL/mL. Each sample was incubated for 15 hours at 37° C., alone or in the presence of recombinant human GX sPLA2 (hGX PLA2; 25 nM), recombinant human GIIF sPLA2 (hGIIF PLA2; 125 nM), bee venom sPLA2 (bvPLA2; 0.18 nM) and Naja mossambica mossambica venom sPLA2 (Naja PLA2; 0.05 nM). NEFAs were quantified using the NEFA-C kit (WAKO). Values are the mean±SD of triplicate measurements. They were normalized by subtracting NEFA amount in the absence of enzyme. Two independent experiments with lipoproteins from different plasmas were performed, which gave similar qualitative results. Results from one experiment are shown;
Plasma and purified LDL and HDL were adjusted to 1.67 mg phospholipid (PL)/mL final concentration in PBS. Because purification yielded low amount of CM/VLDL, the CM/VLDL fraction was adjusted to 1.00 mg PL/mL. CaCl2 (1 mM final) was added to the lipoprotein fractions. 200 μL of each fraction were deposited in a 96-well plate and incubated for 15 hours at 37° C., alone or in the presence of recombinant human GX sPLA2 (hGX PLA2, 25.0 nM), recombinant human GIIF sPLA2 (hGIIF PLA2, 125.0 nM), bee venom sPLA2 (bvPLA2, 0.18 nM) and Naja mossambica mossambica venom sPLA2 (Naja PLA2, 0.05 nM). NEFAs were measured in triplicate using the NEFA-C kit (WAKO). Value from each fraction was normalized by subtracting the NEFA amount in the corresponding fraction without enzyme. Two independent experiments with lipoproteins from different plasmas were performed, which gave similar qualitative results. According to the experiment, maximum hydrolysis reached 50% or 65% of total PLs in the fraction. […]

[2] = test system: P. falciparum FcB1/Colombian strain; assay: Anti-Plasmodium activity assay (dose-response, 3H-hypoxanthine incorporation), culture with human serum; format: cell-based
Experimental: The chloroquine-resistant P. falciparum FcB1/Colombian strain was used. Under the following culture conditions, the in vitro life cycle of the FcB1 strain was 48 hours. Cultures were grown in complete medium consisting of RPMI 1640 (Life Technologies, Inc.) supplemented with 11 mM glucose, 27.5 mM NaHCO3, 100 UI/mL penicillin, 100 μg/mL streptomycin, adjusted to pH 7.4 before addition of heat-inactivated human serum (A+ blood group, 8% final) or Albumax II® (0.5% final), according to the procedure of Trager and Jensen (1976). Parasites were routinely grown at 37° C. in human A+ RBCs (Red blood cells) at a 2% haematocrit and 2-6% parasitemia, in a 3% CO2, 6% O2 and 91% N2 atmosphere. Semi-synchronized cultures were established by Sorbitol (Lambros) treatment. Highly synchronized cultures (4 hour-window synchronization) were obtained by successive Plamion (Pasvol) and Sorbitol treatments. Parasitaemia and stage distribution were determined by optical examination of Diff-Quick stained culture smears. Parasitaemia (expressed in percent) is hundred times the number of parasitized erythrocytes divided by the total number of erythrocytes.
Dried preparations of the purified recombinant human sPLA2s were re-suspended at high concentration (usually 50 μM) in RPMI 0.05% BSA, and then tested individually for their capacity to inhibit the in vitro intra-erythrocytic development of P. falciparum. Dose-response assays based on ^3H-hypoxanthine incorporation by growing parasites were performed as in Guillaume et al. (2004). Radioactivity was measured with a 1450 Microbeta counter (Wallac, Perkin Elmer). Percentage of growth inhibition was calculated from the parasite-associated radioactivity compared with control without sPLA2. Values for the IC50 were determined from dose-response curves.

B1: X: recombinant human group X secreted phospholipase A2 (protein, UniProt O15496 43-165, looked up)
Group 10 secretory …: GILELAGTVGCVGPRTPIAYMKYGCFCGLGGHGQPRDAIDWCCHGHDCCYTRAEEAGCSPKTERYSWQCVNQSVLCGPAENKCQELLCKCDQEIANCLAQTEYNLKYLFYPQFLCEPDSPKCD
preferential order of lipoprotein hydrolysis [1]: HDL>LDL>CM/VLDL | IC50 ([2]; Table II, read-out: IC50 (nM), anti-P. falciparum activity given for comparison): 2.9 ± 2.4 nM | IC50 ([2]; culture in human red blood cells and serum, mean of independent dose-response assays, read-out: IC50 ± SD (anti-P. falciparum activity)): 2.9 ± 2.4 nM | inhibition of P. falciparum development in vitro ([2]; standard P. falciparum cultures with serum): active against P. falciparum

Reference: patent publication US8709741B2, “Methods of diagnosing a plasmodium infection” (priority 2009, dated 2014)
